Measured values taken from patent US20250147051A1, “METHOD FOR DETECTING A TAU PROTEIN IN A SALIVA SAMPLE” (GTINVENT LIMITED, priority 2022, published 2025).
Values belong to the substance of their own block, whether it stands above or below them.

Key:
[1] = target: full length human tau protein 2N4R (hT40) (human) (UniProt P10636); test: Simoa 3-step sandwich, S1D12 capture beads, biotinylated BT2 detector, recombinant hTau40 standard curve; fifth of 8 cells of a shifted row
[2] = target: full length human tau protein 2N4R (hT40) (human) (UniProt P10636); test: Simoa 3-step sandwich, BT2 capture beads, biotinylated HT7 detector, recombinant hTau40 standard curve; sixth of 8 cells of a shifted row
[3] = target: full length human tau protein 2N4R (hT40) (human) (UniProt P10636); test: Simoa 3-step sandwich, S1D12 capture beads, biotinylated HT7 detector, recombinant hTau40 standard curve; fourth of 8 cells of a shifted row
[4] = target: full length human tau protein 2N4R (hT40) (human) (UniProt P10636); test: Simoa, Tau12 on beads, biotinylated HT7 detector
[5] = target: full length human tau protein 2N4R (hT40) (human) (UniProt P10636); test: Simoa 3-step sandwich, S1D12 capture beads, biotinylated Tau12 detector, recombinant hTau40 standard curve; third of 8 cells of a shifted row
[6] = target: full length human tau protein 2N4R (hT40) (human) (UniProt P10636); test: Simoa 3-step sandwich, BT2 capture beads, biotinylated Tau12 detector, recombinant hTau40 standard curve; first of 8 cells of a shifted row, read in the order of the assay heads
[7] = target: full length human tau protein 2N4R (hT40) (human) (UniProt P10636); test: Simoa 3-step sandwich, S1D12 capture beads, biotinylated Tau46 detector, recombinant hTau40 standard curve; seventh of 8 cells of a shifted row

Sequence of full length human tau protein 2N4R (hT40) (human) (P10636 other isoform, or with tags, fused parts or gaps limits assumed): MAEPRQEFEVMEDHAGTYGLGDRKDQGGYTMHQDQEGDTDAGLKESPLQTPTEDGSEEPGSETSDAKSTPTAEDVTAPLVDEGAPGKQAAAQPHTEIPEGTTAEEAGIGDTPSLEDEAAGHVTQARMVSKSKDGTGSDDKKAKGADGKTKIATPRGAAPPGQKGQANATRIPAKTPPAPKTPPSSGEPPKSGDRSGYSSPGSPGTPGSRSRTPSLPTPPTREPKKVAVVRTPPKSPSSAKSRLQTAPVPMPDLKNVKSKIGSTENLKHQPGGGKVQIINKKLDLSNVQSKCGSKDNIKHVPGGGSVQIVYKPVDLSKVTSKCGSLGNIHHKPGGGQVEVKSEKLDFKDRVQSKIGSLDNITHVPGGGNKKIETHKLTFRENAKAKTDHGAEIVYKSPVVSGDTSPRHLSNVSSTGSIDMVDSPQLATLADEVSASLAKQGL

Assay limit of detection [1]: 10.8 pg/mL
Substance: BT2 (antibody)

Assay limit of detection [2]: 0.25 pg/mL | Assay limit of detection [3]: 0.25 pg/mL
Substance: HT7 (antibody)

Simoa limit of detection [4]: 2.2 pg/mL | Assay limit of detection [5]: 0.25 pg/mL | Assay limit of detection [6]: 0.25 pg/mL
Substance: Tau12 mAb (antibody)

Assay limit of detection [7]: 2.2 pg/mL
Substance: Tau46 (antibody)
